B1: Recombinant hIL21R protein (receptor)
chain: not shown
notes: also called human IL21 receptor; Hu-IL21R

What was measured:
[1] = target: B1; experiment: ELISA, recombinant hIL21R coated at 0.5 ug/mL, detection with anti-human-IgG (H+L)-HRP, OD450
Description: (§1) The binding activities of the fusion proteins to human IL21 receptor (hIL21R or Hu-IL21R) were determined using ELISA. Recombinant hIL21R protein were diluted using coating buffer (1×PBS) to 0.5 μg/mL and coated to an ELISA plate at 4° C. overnight. The plate was blocked with 5% slim milk powder in coating buffer at 37° C. for 1 h. […] Finally, 1:5000 diluted anti-human-IgG (H+L)-HRP was added. After an incubation at 37° C. for 1 h, TMB substrate was added for color development. The data was collected using a microplate reader.

[2] = target: T1, His-tagged human IL21R (hIL21R-His) (human, UniProt Q9HBE5 20-232, limits assumed); experiment: SPR (Biacore T200), Ab0033 captured on Protein A chip, hIL21R-His as analyte
T1 construct: not shown: His tag
Description: (§2) The Biacore T200 biosensor is equipped with Sensor Chip Protein A. The proteins (diluted to 1 μg/mL) to be tested were injected at 10 μL/min into the Biacore T200 biosensor for 50 sec, in order to reach the required protein density (about 300 RU). Then His-tagged human IL21R (hIL21R-His, 200 nM) or human PD-L1 (hPD-L1-His, 100 nM) were injected at 30 μL/min into the system for 180 sec. The dissociation was monitored for 600 sec. After each cycle, glycine buffer pH 1.7 (30 μL/min, 30 sec) was used to regenerate the chip.

[3] = target: T2, Recombinant hPD-L1 protein (Acrobiosystems, PD1-H5253) (human, UniProt Q9NZQ7 19-238); experiment: ELISA, recombinant hPD-L1 coated at 0.5 ug/mL, detection with anti-human-IgG (H+L)-HRP, OD450
T2 construct: also called human PD-L1
Description: Recombinant hPD-L1 was diluted in coating buffer (1×PBS) to 0.5 μg/mL and coated to an ELISA plate at 4° C. overnight. The plate was blocked with 5% slim milk powder in coating buffer at 37° C. for 1 h. […] Finally, 1:5000 diluted anti-human-IgG (H+L)-HRP was added. After an incubation at 37° C. for 1 h, TMB substrate was added for color development. The data was collected using a microplate reader.

[4] = target: T2, Recombinant hPD-L1 protein …; experiment: ELISA, recombinant hPD-L1 (Acrobiosystems PD1-H5253) coated at 0.5 ug/mL, detection with anti-human-IgG (H+L)-HRP, OD450
Description: The binding activities of the fusion proteins to human PD-L1 (hPD-L1) were determined using ELISA. […] The plate was blocked with 5% slim milk powder in the coating buffer at 37° C. for 1 h. […] Finally, 1:5000 diluted anti-human-IgG (H+L)-HRP was added. After an incubation at 37° C. for 1 h, TMB substrate was added for color development. The data was collected using a microplate reader.

[5] = target: T3, His-tagged human PD-L1 (hPD-L1-His) (human, UniProt Q9NZQ7 19-238, limits assumed); experiment: SPR (Biacore T200), Ab0033 captured on Protein A chip, hPD-L1-His 100 nM as analyte, 1:1 Langmuir fit
T3 construct: not shown: His tag
Description: as §2
Data were processed with Biacore T200 evaluation software 3.0. The binding kinetics were analyzed by globally fitting the data with the 1:1 Langmuir binding model to obtain the association rate (kₒₙ) and dissociation rate (koff). The affinity (KD) was calculated using the formula: KD=koff/kₒₙ.

LC0030-1 = target: T4, LC0030-1 (Homo sapiens (Human), UniProt P0DOX7 1-214; P0DOX5 2-449 = IgG part); experiment: ELISA, recombinant hIL21R coated at 0.5 ug/mL, detection with anti-human-IgG (H+L)-HRP, OD450
T4 construct: Antibody-cytokine fusion (immunocytokine) made by Sortase A conjugation; also called fusion protein prepared from Ab0030 containing one hIL21 (isoform 1); DAR1
Description: as §1

T3 sequence (Q9NZQ7 19-238 limits assumed): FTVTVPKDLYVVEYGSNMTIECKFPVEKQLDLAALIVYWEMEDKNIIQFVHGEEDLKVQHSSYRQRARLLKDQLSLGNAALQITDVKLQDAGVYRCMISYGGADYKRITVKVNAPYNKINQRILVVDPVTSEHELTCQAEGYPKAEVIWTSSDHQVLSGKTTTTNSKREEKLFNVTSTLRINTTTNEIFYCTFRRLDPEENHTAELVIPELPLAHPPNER
T2 sequence (Q9NZQ7 19-238 limits assumed): as above

Row | binding result [1] | binding result [2] | EC50 (read off the curve) [3] [nM] | EC50 (read off the curve) [4] [nM] | Kd [5] [nM] | koff [5] [s⁻¹] | kon [5] [M⁻¹ s⁻¹] | binding result (LC0030-1) | Binder
1 | no binding (tested: about 40 nM) | no binding (tested: 200 nM) | ~0.1 | ~0.08 | 0.608 | 0.0012 | 1.98e+06 | – | Ab0033 (antibody, human IgG1, kappa, N297A, V domains shown, Signal peptides are not part of the purified protein; also called antibody moiety Ab0033; derived from Ab0002 (3F2)) VH: QVQLQESGPGLVKPSETLSLTCTVSGYSITSGYNWHWIRQFPGNGLEWMGYIHHSSITNYNPSLKSRITISRDTSKNQFSLKLSSVTAADTATYYCAREGYDYDWFAYWGQGTLVTVSS VL: DIVLTQSPDFQSVTPKEKVTITCRASQSISNNLHWYQQKPDESPKLLIKYASQSISGIPSRFSGSGSGTDFTLTINSVEAEDFAMYFCQQSKSWPFTFGQGTRLEIKR
2 | – | – | – | – | – | – | – | binds | B1
